Measured values as given in US20030186334A1, “KTS-disintegrins” (Temple University - Of the Commonwealth System of Higher …, priority 2001, published 2003).

Tests used:
α4β1 integrin = molecular target: T1, α4β1 integrin (Homo sapiens, UniProt P05556+P13612); assay: adhesion of Jurkat cells to VCAM-1; assay type: cell-based; details: α4β1, VCAM-1
T1 construct: endogenous in cells; host or cells: Jurkat cells
Description: (§1) Adhesive ligands for the selected integrins consisted of collagen IV (0.2 μg/well), collagen I, fibronectin, or vascular cell adhesion molecule-1 (VCAM-1). Adhesive ligands in 0.02 M acetic acid were immobilized overnight at 4° C. on a 96-well plate. Plates were then blocked with 1% (w/v) BSA (bovine serum albumin) in Hank's Balanced Salt Solution (HBSS) containing 3 mM Mg^2+ at room temperature for 1-2 hours to prevent cells from non-specifically binding to the plates. α1K562, α2K562, K562, A5, and Jurkat cells expressing the α1β1, α2β1, α5β1, αIIbβ3, and α4β1 integrins respectively were labeled by incubation with 12.5 μM 5-chloromethylfluorescein diacetate (CMFDA) in HBSS for 15 minutes at 37° C. CMFDA labeled cells were then pelleted, washed and resuspended in HBSS buffer containing 3 mM Mg^2+ and 1% (w/v) BSA. […] Plates were then incubated at 37° C. for 30 minutes as indicated in Table 5 and washed three times with HBSS containing 3 mM Mg^2+ and 1% (w/v) BSA to remove unbound cells. Bound cells were lysed using 0.5% (v/v) Triton X-100 in H2O. Fluorescent CMFDA released by lysis of adherent cells in a given well was read using a Cytofluor 2350 fluorescence plate reader.
(§2) The effect of obtustatin, viperisrastatin, echistatin, and eristostatin on the binding of selected integrins to their adhesive ligands was evaluated using the cell adhesion assay described in Example 6. The integrin-expressing cells, integrins and corresponding adhesive ligands, and the results of the cell adhesion assay are shown in Table 6.

α1β1 integrin [1] = molecular target: T2, α1β1 integrin (Homo sapiens, UniProt P05556+P56199); assay: adhesion of HS.939T cells to collagen IV; assay type: cell-based; details: α1β1, Coll IV
T2 construct: expressed in transfected cells; host or cells: α1K562 cells

HMVECs = assay: endothelial cell tube formation assay on Matrigel; assay type: cell-based, human; details: 60 μM, 24 hours
Description: An endothelial cell tube formation assay was performed to assess the anti-angiogenic effect of obtustatin in vitro as follows. Twenty-four well plates were coated with a 1:2 dilution of Matrigel™ in EBM-2 medium, which was polymerized by incubation for 1 hour at 37° C. HMVECs (1.2×10^5 cells per well) were added onto the polymerized Matrigel™ (BD Biosciences, Lexington, Ky.) in EBM-2 medium, in the absence or presence of 60 μM obtustatin. The plates were incubated for 24 hours at 37° C., and analyzed for the extent of tube formation by observation with an inverted microscope, using a magnification of 10× ocular and 10× objective.

α1β1 integrin [2] = molecular target: T2, α1β1 integrin; assay: adhesion of α1K562 cells to immobilized collagen IV; assay type: cell-based; details: α1K562 cells, α1β1, collagen IV
Description: Collagen IV (0.2 μg/well) in 0.02 M acetic acid was immobilized by incubation overnight at 4° C. on a 96-well plate. Plates were then blocked with 1% (w/v) BSA (bovine serum albumin) in Hank's Balanced Salt Solution (HBSS) containing 3 mM Mg^2+ at room temperature for 1-2 hours to prevent cells from non-specifically binding to the plates. α1K562 cells were labeled by incubation with 12.5 μM 5-chloromethylfluorescein diacetete (CMFDA) in HBSS for 15 minutes at 37° C. CMFDA labeled α1K562 cells were then pelleted, washed and resuspended in HBSS buffer containing 3 mM Mg^2+ and 1% BSA. […] The plates were washed three times with HBSS containing 3 mM Mg^2+ and 1% (w/v) BSA to remove unbound cells. Bound cells were lysed using 0.5% (v/v) Triton X-100 in H2O. Fluorescent CMFDA released by lysis of adherent cells in a given well was read using a Cytofluor 2350 fluorescence plate reader.
as §1, §2

α5β1 integrin = molecular target: T3, α5β1 integrin (Homo sapiens, UniProt P05556+P08648); assay: adhesion of K562 cells to fibronectin; assay type: cell-based
T3 construct: endogenous in cells; host or cells: K562 cells
Description: as §1, §2

α1β1 integrin [3] = molecular target: T2, α1β1 integrin; assay: adhesion of P1E6 blocked MV3 cells to immobilized collagen IV; assay type: cell-based; details: only α1β1 mediates adhesion
Description: (§3) The α1β1 integrin specific inhibitory effect of obtustatin was confirmed using human melanoma MV3 cells. MV3 cells express both the α1β1 and α2β1 integrins. MV3 cells adhere strongly to collagen IV through α1β1 and α2β1 integrin-mediated interactions.
(§4) Collagen IV (0.2 μg/well) in 0.02 M acetic acid was immobilized overnight at 4° C. on a 96-well plate. Plates were then blocked with 1% (w/v) BSA (bovine serum albumin) in Hank's Balanced Salt Solution (HBSS) containing 3 mM Mg^2+ at room temperature for 1-2 hours to prevent cells from non-specifically binding to the plates. α1K562 cells were labeled by incubation with 12.5 μM 5-chloromethylfluorescein diacetete (CMFDA) in HBSS for 15 minutes at 37° C. CMFDA labeled MV3 cells were then pelleted, washed and resuspended in HBSS buffer containing 3mM Mg^2+ and 1% (w/v) BSA. 1×10^5 cells were then added to each well in the presence (10 μg/ml) or absence of the α1 integrin subunit specific AJH10 mAb and α2 integrin subunit specific P1E6 mAb as indicated in FIG. 5. Obtustatin was added at the concentrations indicated in FIG. 5 simultaneously with the mAbs. The plates were then incubated at 37° C. for 30 minutes and washed three times with HBSS containing 3 mM Mg^2+ and 1% (w/v) BSA to remove unbound cells. […] Fluorescent CMFDA released by lysis of adherent cells in a given well was read using a Cytofluor 2350 fluorescence plate reader.

α6β1 integrin = molecular target: T4, α6β1 integrin (Homo sapiens, UniProt P05556+P23229); assay: adhesion of α6K562 cells to laminin; assay type: cell-based; details: α6β1, LM
T4 construct: expressed in transfected cells; host or cells: α6K562 cells

α2β1 integrin = α2β1 integrin (Homo sapiens, UniProt P05556+P17301); assay: adhesion of AJH10 blocked MV3 cells to immobilized collagen IV; assay type: cell-based; set-up: endogenous in cells; host or cells: MV3 human melanoma cells; details: adhesion via α2β1
Description: as §3, §4

α1β1 and α2β1 integrins = assay: adhesion of unblocked MV3 cells to immobilized collagen IV; assay type: cell-based, human
Description: as §3
as §4, with “reader. […]” for “reader.”

T2 sequence (P56199 29-1179): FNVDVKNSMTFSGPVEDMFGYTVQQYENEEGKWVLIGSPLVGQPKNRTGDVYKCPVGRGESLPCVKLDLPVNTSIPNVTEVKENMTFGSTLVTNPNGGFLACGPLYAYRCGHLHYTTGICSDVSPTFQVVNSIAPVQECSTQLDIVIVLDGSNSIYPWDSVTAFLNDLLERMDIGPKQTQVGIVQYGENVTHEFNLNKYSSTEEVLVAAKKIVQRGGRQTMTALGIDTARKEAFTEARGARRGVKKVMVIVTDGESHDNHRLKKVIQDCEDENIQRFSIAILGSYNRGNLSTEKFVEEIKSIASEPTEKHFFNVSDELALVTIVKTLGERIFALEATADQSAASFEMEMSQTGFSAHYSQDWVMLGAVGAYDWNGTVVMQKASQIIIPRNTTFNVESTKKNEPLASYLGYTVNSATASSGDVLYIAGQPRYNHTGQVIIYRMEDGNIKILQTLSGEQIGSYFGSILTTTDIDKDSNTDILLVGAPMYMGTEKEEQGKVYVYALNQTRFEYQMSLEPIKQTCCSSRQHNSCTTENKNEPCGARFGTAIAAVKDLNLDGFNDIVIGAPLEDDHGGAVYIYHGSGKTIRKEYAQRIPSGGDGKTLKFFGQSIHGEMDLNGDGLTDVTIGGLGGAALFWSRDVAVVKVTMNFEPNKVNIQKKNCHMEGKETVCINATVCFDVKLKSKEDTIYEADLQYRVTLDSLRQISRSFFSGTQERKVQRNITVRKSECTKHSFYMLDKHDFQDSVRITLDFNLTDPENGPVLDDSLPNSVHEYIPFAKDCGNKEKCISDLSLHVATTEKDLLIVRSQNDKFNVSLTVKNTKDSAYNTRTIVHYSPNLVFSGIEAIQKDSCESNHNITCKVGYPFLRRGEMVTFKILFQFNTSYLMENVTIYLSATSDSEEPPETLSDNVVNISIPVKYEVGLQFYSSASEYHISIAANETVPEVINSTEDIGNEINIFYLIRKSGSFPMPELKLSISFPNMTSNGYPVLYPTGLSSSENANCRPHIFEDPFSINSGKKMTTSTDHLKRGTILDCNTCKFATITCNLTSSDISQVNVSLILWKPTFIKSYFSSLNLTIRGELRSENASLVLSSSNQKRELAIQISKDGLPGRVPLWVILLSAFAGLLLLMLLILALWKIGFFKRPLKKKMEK
T2 sequence (P05556 21-798): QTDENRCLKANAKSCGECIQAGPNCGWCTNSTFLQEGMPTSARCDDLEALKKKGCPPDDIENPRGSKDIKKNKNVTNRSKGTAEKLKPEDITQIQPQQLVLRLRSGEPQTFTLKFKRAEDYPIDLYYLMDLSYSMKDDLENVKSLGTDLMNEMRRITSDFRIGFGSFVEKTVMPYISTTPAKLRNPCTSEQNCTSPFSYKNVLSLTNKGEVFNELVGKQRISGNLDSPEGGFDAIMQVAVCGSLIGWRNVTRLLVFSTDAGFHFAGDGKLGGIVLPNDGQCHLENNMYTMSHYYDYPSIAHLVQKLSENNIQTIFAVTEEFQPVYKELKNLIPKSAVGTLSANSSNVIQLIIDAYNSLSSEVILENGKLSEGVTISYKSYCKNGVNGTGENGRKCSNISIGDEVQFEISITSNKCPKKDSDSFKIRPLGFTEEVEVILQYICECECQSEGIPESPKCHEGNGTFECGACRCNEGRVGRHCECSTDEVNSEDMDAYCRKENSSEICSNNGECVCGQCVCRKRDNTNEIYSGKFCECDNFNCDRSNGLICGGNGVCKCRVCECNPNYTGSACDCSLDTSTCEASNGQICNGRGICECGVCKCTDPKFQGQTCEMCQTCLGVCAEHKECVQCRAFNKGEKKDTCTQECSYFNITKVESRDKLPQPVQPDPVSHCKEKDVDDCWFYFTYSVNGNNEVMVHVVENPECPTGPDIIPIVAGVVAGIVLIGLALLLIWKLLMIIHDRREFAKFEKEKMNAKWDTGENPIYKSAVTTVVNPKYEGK
T3 sequence (P08648 42-894 limits assumed): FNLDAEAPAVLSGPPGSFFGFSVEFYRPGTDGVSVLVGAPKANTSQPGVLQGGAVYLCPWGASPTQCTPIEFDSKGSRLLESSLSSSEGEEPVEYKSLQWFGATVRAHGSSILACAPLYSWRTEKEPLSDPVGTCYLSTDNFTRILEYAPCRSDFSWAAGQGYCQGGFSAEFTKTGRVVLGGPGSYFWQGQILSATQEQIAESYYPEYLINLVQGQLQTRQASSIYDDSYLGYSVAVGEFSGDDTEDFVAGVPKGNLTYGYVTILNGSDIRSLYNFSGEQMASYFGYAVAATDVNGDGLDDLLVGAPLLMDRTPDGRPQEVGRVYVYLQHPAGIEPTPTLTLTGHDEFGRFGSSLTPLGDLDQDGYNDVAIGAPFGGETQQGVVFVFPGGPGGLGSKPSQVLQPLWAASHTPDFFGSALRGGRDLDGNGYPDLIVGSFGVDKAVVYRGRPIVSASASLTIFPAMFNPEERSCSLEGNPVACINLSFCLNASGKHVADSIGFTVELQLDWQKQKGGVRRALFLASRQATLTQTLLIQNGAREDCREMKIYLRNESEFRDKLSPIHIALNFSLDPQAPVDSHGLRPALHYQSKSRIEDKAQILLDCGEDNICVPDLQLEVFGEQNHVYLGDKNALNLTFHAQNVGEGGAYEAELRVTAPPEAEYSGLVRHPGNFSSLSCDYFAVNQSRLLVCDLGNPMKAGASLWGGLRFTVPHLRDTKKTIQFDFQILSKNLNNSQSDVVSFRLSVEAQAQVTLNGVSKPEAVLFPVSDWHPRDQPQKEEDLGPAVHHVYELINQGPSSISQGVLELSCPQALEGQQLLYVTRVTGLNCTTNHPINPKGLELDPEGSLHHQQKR
T3 sequence (P08648 895-1049 partner limits assumed): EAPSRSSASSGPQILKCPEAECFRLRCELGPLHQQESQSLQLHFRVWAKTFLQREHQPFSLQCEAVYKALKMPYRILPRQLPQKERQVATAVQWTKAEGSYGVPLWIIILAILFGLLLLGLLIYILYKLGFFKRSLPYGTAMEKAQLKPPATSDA
T3 sequence (P05556 21-798): as the sequence (P05556 21-798) above
T4 sequence (P23229 24-938 limits assumed): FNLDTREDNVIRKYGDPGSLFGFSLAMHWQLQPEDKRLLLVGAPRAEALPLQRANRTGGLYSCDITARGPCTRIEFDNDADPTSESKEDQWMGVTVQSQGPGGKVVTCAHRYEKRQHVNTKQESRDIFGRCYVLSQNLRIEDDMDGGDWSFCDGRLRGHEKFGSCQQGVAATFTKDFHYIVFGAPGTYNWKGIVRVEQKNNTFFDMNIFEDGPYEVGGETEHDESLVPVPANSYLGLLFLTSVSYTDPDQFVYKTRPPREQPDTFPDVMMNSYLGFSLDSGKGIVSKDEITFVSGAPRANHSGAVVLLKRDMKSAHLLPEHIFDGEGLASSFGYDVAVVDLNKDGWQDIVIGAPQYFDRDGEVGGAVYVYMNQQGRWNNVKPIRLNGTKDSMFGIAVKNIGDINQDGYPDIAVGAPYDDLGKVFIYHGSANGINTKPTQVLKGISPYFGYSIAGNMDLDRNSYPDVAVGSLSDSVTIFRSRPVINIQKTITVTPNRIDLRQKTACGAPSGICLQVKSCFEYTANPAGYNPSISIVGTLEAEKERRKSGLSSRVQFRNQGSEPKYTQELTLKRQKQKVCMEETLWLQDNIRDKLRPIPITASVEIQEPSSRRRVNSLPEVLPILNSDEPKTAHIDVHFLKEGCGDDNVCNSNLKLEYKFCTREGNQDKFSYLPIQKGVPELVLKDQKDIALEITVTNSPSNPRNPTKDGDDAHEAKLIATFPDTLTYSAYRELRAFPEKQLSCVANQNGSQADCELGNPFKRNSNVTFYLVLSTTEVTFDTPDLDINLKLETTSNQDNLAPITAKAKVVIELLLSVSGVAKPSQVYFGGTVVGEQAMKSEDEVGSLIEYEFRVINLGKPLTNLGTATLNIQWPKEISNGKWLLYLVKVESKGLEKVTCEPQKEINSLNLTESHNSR
T4 sequence (P23229 942-1130 partner limits assumed): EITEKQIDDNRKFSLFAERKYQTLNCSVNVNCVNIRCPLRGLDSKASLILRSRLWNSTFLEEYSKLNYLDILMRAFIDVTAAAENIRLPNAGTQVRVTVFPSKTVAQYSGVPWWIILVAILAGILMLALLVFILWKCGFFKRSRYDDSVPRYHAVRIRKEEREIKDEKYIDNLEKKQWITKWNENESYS
T4 sequence (P05556 21-798): as the sequence (P05556 21-798) above

In the case of “Obtustatin (CTTGPCCRQCKLKPAGTTCWKTSLTSHYCTGKSCDCPLYPG)”, the IC50 (α4β1 integrin) is reported as greater than 10000 nM, the IC50 (α1β1 integrin [1]) is reported as 0.1 nM and the “formation of HMVEC tubes on Matrigel” value (HMVECs) is reported as “completely abolished”. For the same substance, the IC50 (α1β1 integrin [2]) was 2 nM, the IC50 (α5β1 integrin) was greater than 10000 nM and the “inhibition of adhesion of MV3 cells to collagen IV” value (“inhibition of adhesion of MV3 cells” below) (α1β1 integrin [3]) was “inhibited by significantly lower obtustatin concentrations”. The IC50 (α6β1 integrin) was greater than 10000 nM, the “inhibition of adhesion of MV3 cells” value (α2β1 integrin) was “comparatively insensitive” and the “inhibition of adhesion of MV3 cells” value (α1β1 and α2β1 integrins) was “comparatively insensitive”.
